Experimental data taken from article PMC3928614.

Key:
[1] = target: GST-G547 IRE1α (His-GST-tagged IRE1α residues G547-L977) (UniProt O75460)
[2] = target: GST-G547 IRE1α (His-GST-tagged IRE1α residues G547-L977) (UniProt O75460); test: native gel or EMSA; native polyacrylamide gel of purified GST-G547 IRE1α and G547 IRE1α; conditions not given
[3] = target: autophosphorylated G547 IRE1α (residues G547-L977, incubated with Mg/ATP) (human) (UniProt O75460)

| Substance | RNase activity (FRET derepression assay) of fully dephosphorylated GST-G547 IRE1α at 25 nM, the lowest concentration tested (% of full activity) [1] | stoichiometry N [2] | RNase activity (FRET-derepression assay) against concentration of autophosphorylated G547 IRE1α; activity from 50 nM, maximal at 350 nM [3] [nM] |
| --- | --- | --- | --- |
| GST-G547 IRE1α (His-GST-tagged IRE1α residues G547-L977) (from UniProt O75460 547-977) | 70 | 2 |  |
| autophosphorylated G547 IRE1α (residues G547-L977, incubated with Mg/ATP) (from UniProt O75460 547-977) (domain or fragment) |  |  | 114 |
